We go through three molecules from patent publication US20260137799A1, “ANTI-MUC1* ANTIBODY DRUG COMPLEXES AND USES THEREOF” (Minerva Biotechnologies Corporation, priority 2023, published 2026).

The subject of assay [1] is T47D. Briefly: xCELLigence impedance cytotoxicity, T47D. In kind it is cell-based, human. Particulars: xCELLigence; 40-120 hours incubation; read-out: IC50, T47D. The protocol:
(§1) An xCELLigence RTCA MP Instrument (Agilent) was used to assess real-time killing of target cancer cells). In the xCELLigence system, target cancer cells, which are adherent, are plated onto electrode array 96-well plates. Adherent cells insulate the electrode and increase the impedance. The number of adherent cancer cells is directly proportional to impedance. […] Therefore, increasing impedance reflects the growth of the cancer cells and decreasing impedance reflects the killing of the cancer cells.
(§2) Target Cancer cells (Table 9) were seeded onto a multi-electrode well plate at a density of 5000 cells/well (100 μL of a 50,000 cells/mL stock) and incubated for 24 hr in a 37° C./5% CO2 incubator. ADCs were prepared as a 2× solution in corresponding growth media and 100 μL of each concentration was added to target cells. As a positive control (100% cell killing) cells were treated with either 1% triton or 1 μM Taxol instead of ADC. After 40-120 hours incubation in a 37° C./5% CO2 incubator cell killing was assessed. In this assay, impedance is measured in real-time. When the adherent cancer cells are killed and come off the electrode surface, impedance (insulation) decreases.

The next assay deals with T47D xenograft tumors. The experiment in a line: T47D breast cancer xenograft. Particulars: intraperitoneal; MMAE ADCs 5-10 mg/kg Days 7, 14, 20; deruxtecan/exatecan ADCs 20 mg/kg weekly x7. It is filed as in vivo, NOD/SCID mice. The protocol:
(§3) For breast cancer xenografts, female NOD/SCID mice (weight 18-22 g, 6-8 weeks old, Charles River Laboratories) previously implanted with a 90-day release estrogen pellet (Innovative Research Laboratories) were subcutaneously injected under isoflurane anesthesia (ISOTHESIA, 250 ml (HENRY SCHEIN, NDC: 11695-6776-2) with one million luciferase-positive T47D breast cancer cells expressing low levels of MUC1*(ATCC) or one million luciferase-positive T47D-MUC1* cells overproducing MUC1* using a BD 26G Insulin Syringes with Detachable Needle (Fisher cat: 329652) or BD 28G Lo-Dose U-100 Insulin Syringes (Fisher cat: 329461).
(§4) Tumor volume was measured from bioluminescence images acquired with a Xenogen IVIS-Spectrum system (Perkin Elmer). Mice were injected […] into the scruff of the neck with 150 ul, 30 mg/mL, D-Luciferin (XenoLight™ D-Luciferin Potassium Salt; PerkinElmer P/N 122799), placed under isoflurane anesthesia, and photographed within 10 minutes of the Leciferin injection. Data was expressed graphically as Radiance (photons/sec) as a function of days post-tumor implantation.
(§5) Tumor mass was determined from tumors excised from mice receiving T47D cells on Day 95 and mice receiving T47D-MUC1* cells on Day 96. […]

Assay [2] concerns T47D-MUC1*. The experiment in a line: PrestoBlue live/dead cell assay, T47D-MUC1*. Particulars: Presto Blue; 72-120 hour incubation. It is filed as cell-based, human. On the procedure:
(§6) Another method of measuring the killing activity of ADCs against target cancer cells is to use the PrestoBlue live/dead cell assay (ThermoFisher). Target cancer cells were seeded in a black-walled, clear-bottom 96-well tissue culture plate at a density of 5000 cells/well (100 μL of a 50,000 cells/mL stock) and incubated overnight in a 37° C./5% CO2 incubator. ADCs were prepared as a 2× solution in corresponding cancer cell growth media and 100 μL of each concentration was added to target cancer cells. As a positive control (100% killing) cancer cells were treated with 1 μM Taxol instead of ADC. After 72 hour-120 hour incubation in a 37° C./5% CO2 incubator, cell viability was measure by fluorescence using the PrestoBlue HS assay (ThermoFisher). Briefly, after the incubation period, 20 μL of PrestoBlue HS solution was added. Fluorescence (Ex 560 nm/Em 590 nm) was recorded after 30-90 min. incubation using a Tecan plate reader. Percentage viability was determined by PrestoBlue HS staining and normalized to 1 μM taxol treated cells.
(§7) The normalized fluorescence values were imported into the graph program, Sigma Plot, data plotted as ADC concentration versus normalized fluorescence signal and curve fitted using a four-parameter Hill equation: f=y0+a*x^b/(c^b+x^b) to calculate IC50 values. IC50 values for the ADCs were generally consistent between the xCELLigence and Presto Blue assays.

Assay [3] relates to T47D-MUC1*. Briefly: xCELLigence impedance cytotoxicity, T47D-MUC1*. In kind it is cell-based, human. Particulars: xCELLigence; 40-120 hours incubation; read-out: IC50, T47D-MUC1*. The protocol:
as §1, §2

Another assay concerns HPAFII. Briefly: PrestoBlue live/dead cell assay, HPAFII. It is filed as cell-based, human. Particulars: Presto Blue; 72-120 hour incubation. The protocol: as §6, §7
The subject of another assay is NCI-H1975. The experiment in a line: xCELLigence impedance cytotoxicity, NCI-H1975. It is filed as cell-based, human. Particulars: xCELLigence; 40-120 hours incubation; read-out: IC50, NCI-H1975. On the procedure:
as §1, §2

The subject of another assay is H1975. Briefly: PrestoBlue live/dead cell assay, H1975. In kind it is cell-based, human. Particulars: Presto Blue; 72-120 hour incubation. The protocol:
as §6, §7

Assay [4] deals with T47D. The experiment in a line: PrestoBlue live/dead cell assay, T47D. It is filed as cell-based, human. Particulars: Presto Blue; 72-120 hour incubation. The protocol:
as §6, §7

In assay [5] the test system is T47D-MUC1* xenograft tumors. Briefly: T47D-MUC1* breast cancer xenograft. It is filed as in vivo, NOD/SCID mice. Particulars: intraperitoneal; MMAE ADCs 5-10 mg/kg Days 7, 14, 20; deruxtecan/exatecan ADCs 20 mg/kg weekly x7. On the procedure:
as §3, §4, §5

The next assay relates to HPAFII-MUC1*. Briefly: PrestoBlue live/dead cell assay, HPAFII-MUC1*. It is filed as cell-based, human. Particulars: Presto Blue; 72-120 hour incubation. On the procedure:
as §6, §7

In a further assay the target is T1, PSMGFR C-10 peptide.
T1 peptide: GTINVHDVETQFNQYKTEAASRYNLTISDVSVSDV
Briefly: ELISA on PSMGFR C-10 peptide; Table 4 grade. In general terms: In an ELISA, binding on a coated surface is turned into a signal by an enzyme label.

Assay [6] has as its target MUC1* on cancer cells and tumour sections (UniProt P15941). The experiment in a line: IHC with C2 on untreated H1975-wt lung tumors excised from mice.
The target is the same in assay [7]. Briefly: IHC with C2 on untreated T47D-wt breast tumors excised from mice.
Assay [8] has the same target. Briefly: IHC with C2 on untreated HPAFII-wt pancreatic tumors excised from mice.
In a further assay the target is T2, PSMGFR N-19 C-5 peptide.
T2 peptide: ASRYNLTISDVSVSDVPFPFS
The experiment in a line: peptide binding assay (FIGS. 2A, 2B).

Another assay addresses T3, PSMGFR N-30 peptide.
T3 peptide: SVSDVPFPFSAQSGA
The experiment in a line: peptide binding assay (FIGS. 2A, 2B).

A further assay addresses T4, PSMGFR peptide.
T4 construct: also called PSMGFR 45mer
T4 peptide: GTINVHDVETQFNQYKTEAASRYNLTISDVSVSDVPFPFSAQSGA
The experiment in a line: peptide binding assay (FIGS. 1A, 1B).

Another assay concerns the target T5, PSMGFR N-10 peptide.
T5 peptide: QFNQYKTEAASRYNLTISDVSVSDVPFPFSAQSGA
The experiment in a line: ELISA on PSMGFR N-10 peptide; Table 4 column 'Binds N-10', grade.

B1: C2 MC-VC-PAB MMAE (conjugate, listed as Mus sp.)
heavy: EVQLEESGGGLVKPGGSLKLSCAASGFTFSGYAMSWVRQTPEKRLEWVATISSGGTYIYYPDSVKGRFTISRDNAKNTLYLQMSSLRSEDTAMYYCARLGGDNYYEYFDVWGAGTTVTVSSAKTTPPSVYAKTTPPSVYPLAPGSAAQTNSMVTLGCLVKGYFPEPVTVTWNSGSLSSGVHTFPAVLQSDLYTLSSSVTVPSSTWPSETVTCNVAHPASSTKVDKKIVPRDCGCKPCICTVPEVSSVFIFPPKPKDVLTITLTPKVTCVVVDISKDDPEVQFSWFVDDVEVHTAQTQPREEQFNSTFRSVSELPIMHQDWLNGKEFKCRVNSAAFPAPIEKTISKTKGRPKAPQVYTIPPPKEQMAKDKVSLTCMITDFFPEDITVEWQWNGQPAENYKNTQPIMDTDGSYFVYSKLNVQKSNWEAGNTFTCSVLHEGLHNHHTEKSLSHSPGK
light: DIVITQSTASLGVSLGQRATISCRASKSVSTSGYSYMHWYQQRPGQPPKLLIYLASNLESGVPARFSGSGSGTDFTLNIHPVEEEDAATYYCQHSRELPFTFGGGTKLEIKRADAAPTVSADAAPTVSIFPPSSEQLTSGGASVVCFLNNFYPKDINVKWKIDGSERQNGVLNSWTDQDSKDSTYSMSSTLTLTKDEYERHNSYTCEATHKTSTSPIVKSFNRNEC
modifications: MC-VC-PAB-MMAE
notes: ADC: anti-MUC1* antibody C2 conjugated via MC-VC-PAB linker to MMAE
For orientation: IC50 means the point on the concentration scale where inhibition reaches its midpoint. Regarding B1, the 50% inhibitory concentration (IC50) in the assay on T47D [1] worked out at 156 nM; in the assay on T47D-MUC1* [2], 2.6 nM; in the assay on T47D-MUC1* [3], 1.8 nM; with HPAFII, 112 nM; with NCI-H1975, 23 nM; in the assay with H1975 it was 89 nM. Also, the IC50 was determined as 187 nM in the assay with T47D [4] and 63 nM in the assay on HPAFII-MUC1*. Besides, in the assay with T47D xenograft tumors, the “growth of T47D xenograft tumors” value is on record as “inhibit the growth”. Further, in [5], the “growth of T47D-MUC1* xenograft tumors” value is “inhibit the growth”.

B2: anti-MUC1* antibody C2 (antibody)
VH: EVQLEESGGGLVKPGGSLKLSCAASGFTFSGYAMSWVRQTPEKRLEWVATISSGGTYIYYPDSVKGRFTISRDNAKNTLYLQMSSLRSEDTAMYYCARLGGDNYYEYFDVWGAGTTVTVSSAKTTPPSVYPLAPGSAAQTNSMVTLGCLVKGYFPEPVTVTWNSGSLSSGVHTFPAVLQSDLYTLSSSVTVPSSTWPSETVTCNVAHPASSTKVDKKIVPRDCGCKPCICTVPEVSSVFIFPPKPKDVLTITLTPKVTCVVVDISKDDPEVQFSWFVDDVEVHTAQTQPREEQFNSTFRSVSELPIMHQDWLNGKEFKCRVNSAAFPAPIEKTISKTKGRPKAPQVYTIPPPKEQMAKDKVSLTCMITDFFPEDITVEWQWNGQPAENYKNTQPIMDTDGSYFVYSKLNVQKSNWEAGNTFTCSVLHEGLHNHHTEKSLSHSPGK
VL: DIVITQSTASLGVSLGQRATISCRASKSVSTSGYSYMHWYQQRPGQPPKLLIYLASNLESGVPARFSGSGSGTDFTLNIHPVEEEDAATYYCQHSRELPFTFGGGTKLEIKRADAAPTVSIFPPSSEQLTSGGASVVCFLNNFYPKDINVKWKIDGSERQNGVLNSWTDQDSKDSTYSMSSTLTLTKDEYERHNSYTCEATHKTSTSPIVKSFNRNEC
notes: Monoclonal antibody raised against the PSMGFR peptide; also called mAb C2; IgG1 C2 antibody
With B2, the binding result with PSMGFR C-10 peptide is listed as “no binding”. For the same molecule, the H-score stood at 40 in assay [6], 10 in [7] and 220 in assay [8].

B3: anti-MUC1* antibody 3C2B1 (antibody, V domains shown)
VH: EVMLVESGGGLVKPGGSLKLSCAASGITFSTYTMSWVRQTPEKRLEWVATISTGGDKTYYSDSVKGRFTISRDNAKNNLYLQMSSLRSEDTALYYCARGTTAMYYYAMDYWGQGTSVTVSS
VL: DIVLTQSPASLAVSLGQRATISCRASKSISTSDYNYIHWYQQKPGQPPKLLIYLASNLESGVPARFSGSGSGTDFTLNIHPVEEEDAATYYCQHSRELPLTFGAGTKLELK
notes: Humanised form is m27; also called 32CB1
As for B3, the binding result with PSMGFR C-10 peptide is “no binding”; in the assay with PSMGFR N-19 C-5 peptide, “binds”; in the assay with PSMGFR N-30 peptide, “binds”; with PSMGFR peptide, “binds”; with PSMGFR N-10 peptide, “binds”.
